# Variants at the floor of the assay were thinned out.
# B1: TPR 5TU (parent)
# chain: GGAUCUUCUCGAUCUAACAAAAAAGACAAAUCUGCCACAAAGCUUGAGAGCAUCUUCGGAUGCAGAGGCGGCAGCCUUCGGUGGCGCGAUAGCGCCAACGUUCUCAACUAUGACACGCAAAACGCGUGCUCCGUUGAAUGGAGUUUAUCAUG
# Variants of: B1
# Assay: polymerase ribozyme fitness, log enrichment relative to wild type (log ratio); higher = more active; in vitro selection for triplet polymerase activity
# Summary of the method: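 Each subunit of a heterodimeric triplet polymerase ribozyme was represented by a PCR-built, transcribed mutant library that underwent triplicate single-round in vitro selection with frozen incubation at −7 °C. Extended constructs were recovered by gel excision, streptavidin-bead capture and RT-PCR, and Illumina sequencing of input and output libraries kept genotypes with ≥10 input reads and ≥1 read per output. Fitness is the logarithm of genotype enrichment relative to wild-type enrichment, from inverse-variance-weighted replicate averages, with a logarithm base of 2.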
row,Variant,polymerase ribozyme fitness (log ratio)
1,GGAUCUUCUCGAUCUAACAAAAAAGACAAAUCUGCCACAAAGCUUGAGAGCAUUUUCGGAUGCAGAGGCGGCAGCCUUCGGUGGCGCGAUAGCGCCAACGUUCUCAACUAUGACACGCAAAACGCGUGCUCCGUUGAAUGGAGUUUAACAUG [C54U U148A],-3.74
2,GGAUCUUCUCGAUCUAACAAAAAAGACAAAUCUGCCACAAAGCUUGAGAGCAUUUUCGGAUGCAGAGGCGGCAGCCUACGGUGGCUCGAUAGCGCCAACGUUCCAAACUAUGACACGCAAAACGCGUGCGCAGUUAAAUGGAGUUUAUCAUG [C54U U78A G86U U104C C105A U130G C132A G136A],≤ -4.2
3,GGAUCUUCUCGAUCUAACAAAAAAGACAAAUCUGCCACAAAGCUUGAGAGCAUUUUCGGAUGCAGAGGCGGCAGCCUUCGGUGGCGCGAUAGCGCCAACGUUCUCAACUAUGACACGCAAAACGCGUGCUCCGAUGAAUGGAGUUUAUCAUG [C54U U134A],-2.84
4,GGAUCUUCUCGAUCUAACAAAAAAGACAAAUCUGCCACAAAGCUUGAGAGCAUUUUCGGAUGCAGAGGCGGCAGCCUUCGGUGGCGCGAUAGCGCCAACGGUCUCAACUAUGACACGCAAAACGCGUGCUCCGUUGAAUGGAGUUUAUCAUG [C54U U101G],-0.483
5,GGAUCUUCUCGAUCUAACAAAAAAGACAAAUCUGCCACAAAGCUUGAGAGCAUUUUCGGAUGCAGAGGCGGCAGCCUUCGGCGGCGCGAUAGCGACAACGUUCUCAACUAUGACACGCAAAACGCGUGCUCCGUUGAAUGUAGUUUAUCAUG [C54U U82C C95A G141U],-2.99
6,GGAUCUUCUCGAUCUAACAAAAAAGACAAAUCUGCCACAAAGCUUGAGAGCAUUUUCGGAAGCAGAGGCGGCAGCCUUCGGUGUCGCGAUAGCGCCAACGUUCUCAAGUAUGACACGCAAAACGCGUGCUCCGUUGAAUUGAGUUUAUCAUG [C54U U61A G84U C108G G140U],≤ -4.2
7,GGAUCUUCUCGAUCUAACAAAAAAGACAAAUCUGCCACAAAGCUUGAGAGCAUUUUCGGAUGCAGAGGCGGCAGCCUUCGGUGGCGCGAUAGCGCCAACGUUCUCAACUAUGACACGCAAAACGCGUGCUCCGUUAAAUGGAGUUUAUCAUG [C54U G136A],0.306
8,GGAUCUUCUCGAUCUAACAAAAAAGACAAAUCUGCCACAAAGCUUGAGAGCAUUUACGGAUGCAGAGGCGGCAGCCUUCGAUGGCGCGAUAGCGACAACGCUCUCAACUAUGACACGCAAAACGCGUGCUCCGUUGAAUGGAGUUUAUCAUG [C54U U56A G81A C95A U101C],-1.35
9,GGAUCUUCUCGAUCUAACAAAAAAGACAAAUCUGCCACAAAGCUUGAGAGCAUUAUCGGAUGCAGAGGCGGCAGCAUUCGGUGGCGCGAUUGCGACAACGUUAUCAACUAUGACACGCAAAACGCGUGCUGCGUUGAUUGGAGUUUAUCAUG [C54U U55A C76A A91U C95A C103A C131G A138U],≤ -4.2
10,GGAUCUUCUCGAUCUAACAAAAAAGACAAAUCUGCCACAAAGCUUGAGAGCAUUGUCAGAUGCUGAGGCGGCAGCCUUCGGUGGCGCAAUAGCGGCAACGUUCUCAACUAUGACACGCAAAACGCGAGCUCCGUUGAAUGGAGUUUAUCAUG [C54U U55G G58A A64U G88A C95G U127A],≤ -4.2
11,GGAUCUUCUCGAUCUAACAAAAAAGACAAAUCUGCCACAAAGCUUGAGAGCAUUUUCGGAUGCAGAGGCGGCAGCCUUCGGUGGCGCGAUAGCCCCAACGUUCUCAACUAUGACACGCAAAACACGUGCUCCGUUGAAUGGAGUUUAUCAUG [C54U G94C G124A],-1.04
12,GGAUCUUCUCGAUCUAACAAAAAAGACAAAUCUGCCACAAAGCUUGAGAGCAUUUUCGGAUGCAGAGGCGGCAGCCUUCGGUGGCGCGAUAGCGCCAACGUUCUCAACUAUGACACGCAAAACGCGUGCGCCGUUGAAUGGAGUUUAUCAUG [C54U U130G],-3.73
13,GGAUCUUCUCGAUCUAACAAAAAAGACAAAUCUGCCACAAAGCUUGAGAGCAUUUACGGAUGCAGAGGCGGCAGCCUUCGGUGGCACGAUAGCGCCAACGUACUCAACUAUGACAAGCAAAACGCGUGCUCCGUUGAAUGGAGUUUAUCAUG [C54U U56A G86A U102A C116A],-2.55
14,GGAUCUUCUCGAUCUAACAAAAAAGACAAAUCUGCCACAAAGCUUGAGAGCAUUUUCGGAUGCAGAGGCGGCAGCCUUCGGUGGCGCGAUAGCGCCAACGUUCUCAACUAUGACACGCAAAACGCGUGCUCCGUUGAAUGGAAUUUAUCAUG [C54U G143A],-0.736
15,GGAUCUUCUCGAUCUAACAAAAAAGACAAAUCUGCCACAAAGCUUGAGAGCAUUUCCGGAUGCAGAGGCGGCUGCCUUCGGUGGCGCGAUAGCGCCAACGUUCUCAACUAUGACACGCAAAACGCGUGCUCCGUUGAAUGGAGUUUAUCAUG [C54U U56C A73U],-1.06
16,GGAUCUUCUCGAUCUAACAAAAAAGACAAAUCUGCCACAAAGCUUGAGAGCAUUCUCGGAUGCAGAGGCGGUAGCCUUCGGUGGCGAGAUAGCGCCAACGUUCUCAACUAUGACACGCAAAACGCGUGCUCCGUUGAAUGGAGUUUAUCAUG [C54U U55C C72U C87A],≤ -4.2
17,GGAUCUUCUCGAUCUAACAAAAAAGACAAAUCUGCCACAAAGCUUGAGAGCAUUUUCGGAUGCAGAGGCGGCAGCCUUCGGAAGCGCGAUAGCGCCAGCGUUCUCAACUAUGACACGCAAAACGCGUGCUCCGUUGAAUGGAGUUUAUCAUG [C54U U82A G83A A98G],-1.89
18,GGAUCUUCUCGAUCUAACAAAAAAGACAAAUCUGCCACAAAGCUUGAGAGCAUUUUCGGAUGCAGAGGCGGCAGCCCUCGGUGGCGCAAUAGCGCUAACGUUCUCCACUAUGACACGCAAAACGCGUGCUCCGUUGAAUGGAGUUUAUCAUG [C54U U77C G88A C96U A106C],≤ -4.2
19,GGAUCUUCUCGAUCUAACAAAAAAGACAAAUCUGCCACAAAGCUUGAGAGCAUUUUCGGAUGCAGAGGCGGCAGCCUUCGGUGGCGCAUUAGCGACAAUGUUCUCAACUAUGACACGCAAAACGCGUGCUCCGUUGAAUGGAGUUGAUCAAG [C54U G88A A89U C95A C99U U146G U151A],≤ -4.2

row,Variant,polymerase ribozyme fitness (log ratio)
1,GGAUCUUCUCGAUCUAACAAAAAAGACAAAUCUGCCACAAAGCUUGAGAGCAUUUUCGGAUGCAGAGGCGGCAGCCUUCGGUGGCGCGAUAGCGCCAACGUUCUCAACUAUGACACGCAAAACGCGUGCUCCGUUGAAUGAAGUUUAUCAGG [C54U G141A U151G],≤ -4.2
2,GGAUCUUCUCGAUCUAACAAAAAAGACAAAUCUGCCACAAAGCUUGAGAGCAUUUUCGGAUGCAGAGGCGGCAGCCUUCGGUGGCGCGAUACCGCCAACGUUCUCAACUAUGACACGCAAAACGCGUGCUCCGUUGAAUGGAGUUUAUCAUG [C54U G92C],-1.07
3,GGAUCUUCUCGAUCUAACAAAAAAGACAAAUCUGCCACAAAGCUUGAGAGCAUUUUCGGAUGCAGAGGCGGCAGCCUUCGGGGGCGCGAUAGCGACAACGUUCUCAACUAUGACACGCGAAACGCGUGCUCCGUUGAAUGGAGUUUAUCAUG [C54U U82G C95A A119G],-2.04
4,GGAUCUUCUCGAUCUAACAAAAAAGACAAAUCUGCCACAAAGCUUGAGAGCAUUUUCGGAUGCAGAGGCGGCAGCCCUCGGUGACGCGAUAGCGCCAACGUUCUCAACCAUGACACGCAAAACGCGUGCUCCGUUGAAUGGAGUUUAUCAUG [C54U U77C G84A U109C],≤ -4.2
5,GGAUCUUCUCGAUCUAACAAAAAAGACAAAUCUGCCACAAAGCUUGAGAGCAUUUCCGGAUGCAGAGGCGGCAGCCUUCGGUGGCGCGAUAGCGCCAACGUUCUCAACUAUGACACGCAAAACGCGUGCUCCGUUGAAUGGAGUUUAUCAUG [C54U U56C],-0.57
6,GGAUCUUCUCGAUCUAACAAAAAAGACAAAUCUGCCACAAAGCUUGAGAGCAUUUCCGGAUGCAGAGGCGGCAGCCUUCGGUGGCGCGAUAGUGCCAACGUUCUCAACUAUGACACGCAAAACGCGUGCUCCGUUGAAUGGAGUUUAUCUUG [C54U U56C C93U A150U],0.278
7,GGAUCUUCUCGAUCUAACAAAAAAGACAAAUCUGCCACAAAGCUUGAGAGCAUUUACGGAUGCAGAGGCGGCAGCCUUCGGUGGCGCGAUAGCGCCAACGUUCUCAACUAUGACACGUAAAACGCGUGCUCCGUUGAAUGGAGUUUAUCAUG [C54U U56A C118U],-0.674
8,GGAUCUUCUCGAUCUAACAAAAAAGACAAAUCUGCCACAAAGCUUGAGAGCAUUUUCGGAUGCAGAGGCGGCAGCCUUCGGUGGCGCCAUAGCGCCAACGUUCUCAACUAUGACACGCAAAACGCGUGCUCCGUUGAAUGGAGUUUAUCAUG [C54U G88C],≤ -4.2
9,GGAUCUUCUCGAUCUAACAAAAAAGACAAAUCUGCCACAAAGCUUGAGAGCAUUUUCGGAUGCAGAGGCGGCAGCCUUCGGUGGCGCGAUAGCGCCAACGUUCUCAACUAUGACACGCAAAACCCGUGCUCCGUUGAAUGGAGUUUAUCAUG [C54U G124C],-0.768
10,GGAUCUUCUCGAUCUAACAAAAAAGACAAAUCUGCCACAAAGCUUGAGAGCAUUGUCGGAUGCAGAGGCGGCAGCCUUCGGUGGCGCGAUAGCGACAACGUUCUCAACUAUGACACGCCAAACGCGGGCUCCGUUGAAUGGCGUUUAUCAUG [C54U U55G C95A A119C U127G A142C],≤ -4.2
11,GGAUCUUCUCGAUCUAACAAAAAAGACAAAUCUGCCACAAAGCUUGAGAGCAUUUUCGGAUGCAGAGGCGGCAGCCUUCGGUGGCUCGAUAGAGCCUACGUUCUCAACUAUGACACGCAGAACGCGUGCUCCGUUGAAUGGAGUUUAUCAUG [C54U G86U C93A A97U A120G],-1.29
12,GGAUCUUCUCGAUCUAACAAAAAAGACAAAUCUGCCACAAAGCUUGAGAGCAUUUUCGGAUGCAGAGGCGGCAGCCUUCGGAGGCGCGAUAGCGCCAACGUUCUUAACUAUGACACGCGAAACGCGUGCUCCGUUGAAUGGAGUUUAUCAUG [C54U U82A C105U A119G],0.194
13,GGAUCUUCUCGAUCUAACAAAAAAGACAAAUCUGCCACAAAGCUUGAGAGCAUUUUCGGAUGCAGAGGCGGCAGCCUUCGGUGGCGCGAUAGCGCCAACGUUCUCAACUAUGACACGCAAAACGCGUGCUCCGUUGAAUGGAGUUGAUCAUG [C54U U146G],-0.826
14,GGAUCUUCUCGAUCUAACAAAAAAGACAAAUCUGCCACAAAGCUUGAGAGCAUUUUCGGAUGCAGAGGCGGCAGCCUUCGGUGGCGCGAUAGCGCCAACGUUCUCAACUAUGACACGCAAAACGCGUGCUCCGUUGAAUGGAGUUAAUCAUG [C54U U146A],-0.881
15,GGAUCUUCUCGAUCUAACAAAAAAGACAAAUCUGCCACAAAGCUUGAGAGCAUUUACGGAUGCAGAGGCGACAGCCUUCGGUGGCGCGAUAGCGCCAACGUUCUCACCUAUGACACGCAAAACGCGUGCUCCGUUGAAUGGAGUUUAUCCUG [C54U U56A G71A A107C A150C],≤ -4.2
16,GGAUCUUCUCGAUCUAACAAAAAAGACAAAUCUGCCACAAAGCUUGAGAGCAUUGUCGGAUGCAGAGGCGGCAGCCUUCGGGGGCGCGAUAGCGCCAACGUUCUCAACUAUGACACGCAAAACGCGUGCUCCGUUGAAUGGAGUUUAUCAUG [C54U U55G U82G],-1.38
17,GGAUCUUCUCGAUCUAACAAAAAAGACAAAUCUGCCACAAAGCUUGAGAGCAUUAUCGGAUGCAGAGGCGGCAGCCUUCGGUGGCGCGAUAGCGGAAACGUUCUCAACUAUGACACGCAAAACGCGUGCUCCGUUGAAUGGAGUUUAUCAUG [C54U U55A C95G C96A],-3.07
18,GGAUCUUCUCGAUCUAACAAAAAAGACAAAUCUGCCACAAAGCUUGAGAGCAUUUUCGGAUGCAGAGGCGGCAGCCUUCGGUGGCGCGAUAGCACCAACGUUCUCAACUAUGACACGCAAAACGCGUGCUCCGUUGAAUGGAGUUUAUCAUG [C54U G94A],-0.351
19,GGAUCUUCUCGAUCUAACAAAAAAGACAAAUCUGCCACAAAGCUUGAGAGCAUUUUCGGAUGCAGAGGCGGCAGCCUUCGGUGGCGCGAUAGCCCCAACGUUCUCAACUAUGACACGCAAAACGCGUGCUCCGUUGAAUGGAGUUUAUCAUG [C54U G94C],-1.15
